Laboratory results from the RNAGym collection of RNA variant scans (doi:10.1073/pnas.2313332121).
This sample holds only a part of the variants without activity.

B1: TPR 5TU (parent)
chain: GGAUCUUCUCGAUCUAACAAAAAAGACAAAUCUGCCACAAAGCUUGAGAGCAUCUUCGGAUGCAGAGGCGGCAGCCUUCGGUGGCGCGAUAGCGCCAACGUUCUCAACUAUGACACGCAAAACGCGUGCUCCGUUGAAUGGAGUUUAUCAUG

Variants of: B1
Test: polymerase ribozyme fitness, log enrichment relative to wild type (log ratio); higher = more active; in vitro selection for triplet polymerase activity
Method in brief: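 Libraries of mutants in each subunit of a heterodimeric triplet polymerase ribozyme were generated by PCR and transcribed. In triplicate, each went through one in vitro selection round: annealing with biotinylated primer, partner subunit and triplets; frozen incubation at −7 °C; gel excision of extended constructs; streptavidin-bead capture; RT-PCR. Fitness, taken from Illumina sequencing of input and output libraries, is the logarithm of a genotype's enrichment over wild-type enrichment, averaged across replicates with inverse-variance weights. The logarithm is base 2, and genotypes needed ≥10 input reads and ≥1 read per output to be kept.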

Variant	polymerase ribozyme fitness (log ratio)
GGAUCUUCUCGAUCUAACAAAAAAGACAAAUCUGCCACAAAGCUUGAGAGCUUCUUCGGAUGCAGAGGCGGCAGCCUUCGAUGGCGAGAUAGCGCCUACGUUCGCAACUAUGACACGCAAAACGCCUGCUCCGGUCAAUGGAGUUUAUCAUG	≤ -4.2
GGAUCUUCUCGAUCUAACAAAAAAGACAAAUCUGCCACAAAGCUUGAGAGCUUCUUAGGAUGCAGAGGCGGCAGCCUUCGGUGGCGCGAUAGCGCCAACGUUCUCAACUAUGACACGCAAAACGCGUGCUCCGUCGAAUGGAGUUUAUCAUG	-3.88
GGAUCUUCUCGAUCUAACAAAAAAGACAAAUCUGCCACAAAGCUUGAGAGCUUCUUCGGAUGCAGAGGCGGCAGCCUUCGGUAGCGCGAUAGCGUCAACGUUCUCAACUAUGACACGCAAAACGCGUGCUCCGUUGAAUGGAGUUUAUCAUG	-3.78
GGAUCUUCUCGAUCUAACAAAAAAGACAAAUCUGCCACAAAGCUUGAGAGCUUCUUCGGAUGCAGAGGCGGCAGCCUUCGGUGGCGCGGUAGCGCCAACGUUCUCAACUAUGACACGCAAAACGCGUGCUCCGUUGAAUGGAGUUUAUCAUG	-3.14
GGAUCUUCUCGAUCUAACAAAAAAGACAAAUCUGCCACAAAGCUUGAGAGCUUCUUCGGAUGCAGAGGCGGCAGCCUUCGGUGGCGCGAUAGCGACAACGUUGUCAACUAUGACAGGCAAAACGCGUGCUCCUUUGAAUGGAGUUUAUCAUG	≤ -4.2
GGAUCUUCUCGAUCUAACAAAAAAGACAAAUCUGCCACAAAGCUUGAGAGCUUCUUCGAAUGCAGAGGCGGCAGCCUUCGGUGGCGCGAUAGCGCCAGCGUUCUCAACUAUGACACGCAAAACGCGUGCUCCGUUGAAUGGAGUUUAUCAUG	-1.21
GGAUCUUCUCGAUCUAACAAAAAAGACAAAUCUGCCACAAAGCUUGAGAGCUUCUUCGAAUGCAGAGGCGGCAGCCUUCGGUGGCGCGAUAGCGCCAGCGUUCUCAACUAUGACACGCAAAACGCGUGCUUCGUUGAAUGGAGUUUAUCAUG	-1.78
GGAUCUUCUCGAUCUAACAAAAAAGACAAAUCUGCCACAAAGCUUGAGAGCUUCUUCGGAUGCAGAGGCGGCAGCCUUCGGUGGCGUGAUAGCGCCAACGUUUUCAACUAUGACACGCAAAACGCGUGCUCCGUUGAAUGGAGUUUAUCAUG	-2.81
GGAUCUUCUCGAUCUAACAAAAAAGACAAAUCUGCCACAAAGCUUGAGAGCUUCUUCGGAUGCAGAGGCGGCAGCCUUCGGUGGCGCGAUAGCGCAAACGUUCUCAACUAUGACACGCAAAACGCGUGCUCCGUUGAAUGGAGUUUAUCAUG	-2.92
GGAUCUUCUCGAUCUAACAAAAAAGACAAAUCUGCCACAAAGCUUGAGAGCUUCUUCGGAUGCAGAGGCGGCAGCCUUCGGUGGCGCGAUAGCGCUAACGGUCUCAACUAUGACACGCAAAACGCGUGCUCCGUUGAAUGGAGUGUAUCAUG	-4.1
GGAUCUUCUCGAUCUAACAAAAAAGACAAAUCUGCCACAAAGCUUGAGAGCUUCUUCGGAUGCAGAGGCGGCAGCCUUCGGUGGCGCGAUAGCGCCAACGUUCUCAACUAUGACACGUAAAACGCGUGCUCCGUUGAAUGGAGUUGAUCAUG	-3.62
GGAUCUUCUCGAUCUAACAAAAAAGACAAAUCUGCCACAAAGCUUGAGAGCUUCUUAGGAUGCAGAGGCGGCAGCCUUCGGUGGCGCGAUAGCGACUACGUUCUCAACUAUGACACGCAAAACGCGUGCUCCGUUGAAUGGAGUUUAUCAUG	-2.33
GGAUCUUCUCGAUCUAACAAAAAAGACAAAUCUGCCACAAAGCUUGAGAGCUUCUUCGGAUGCAGAGGCGGCAGCCUUCGGUGGCGCGAUUGCGCCAACGUUCUCAACUAUGACGCGCAAAACGCGUGCUUCGUUGAAUGGAGUUUAUCAUG	≤ -4.2
GGAUCUUCUCGAUCUAACAAAAAAGACAAAUCUGCCACAAAGCUUGAGAGCUUCUUCGGAUGCAGAGGCGGCAGCCUUCGGUGGCGCGAUAGCGCCAACGUUCUCAACUAUGACACGCAAAGCGCGUGCUCCGUUGAAUGGAGUUUAUCAUG	-3.43
GGAUCUUCUCGAUCUAACAAAAAAGACAAAUCUGCCACAAAGCUUGAGAGCUUCUUCGGAUGCAGAGGCGGCAGCCUUCGGUGGCGCGAUAGCGCCAACGUUCUCAACUAUGACACGCAAAACGCGUGCUCCGUUGAAUGGAGUUUAUCGUG	-1.24
GGAUCUUCUCGAUCUAACAAAAAAGACAAAUCUGCCACAAAGCUUGAGAGCUUCUUCGGAUGCAGAGGCGGCUGCCUUCGGUGGCGCGCUACCGCCAACGUUCUCAACUAUGACACGCAAAACGCGUGGUCCGUUGUAUGGAGUUUAUCAUG	≤ -4.2
GGAUCUUCUCGAUCUAACAAAAAAGACAAAUCUGCCACAAAGCUUGAGAGCUUCUUCGGAUGCAGAGGCGGCAGCCUUCGGUGGCGCGAUUGCGCCAACGUUCUCAACUAUGACACGCAAAACGCGUGCUCCGUUGAAGGGAGAUUAUCAUG	≤ -4.2
GGAUCUUCUCGAUCUAACAAAAAAGACAAAUCUGCCACAAAGCUUGAGAGCUUCUUCCGAUGCAGAGGCGGCAGCCUACGGUGGCGCGAUAGCGCCAACGUUCUCAACUAUGACACGCAAAGCGCGUGCUCCGUUGAAUGGAGUUUAUCAUG	≤ -4.2
GGAUCUUCUCGAUCUAACAAAAAAGACAAAUCUGCCACAAAGCUUGAGAGCUUAUUCGGAUGCAGAGGCAGCAGCCUUCGGUGGCGCGGUACCGCCAACGUUCUCAACUAUGACACGCCAAACGCAUGCUCCGUUGAAUGAAGUUUAUCAUG	≤ -4.2
